Data: article PMC10354202

Key:
[1] = molecular target: (Ig32)2-(R3^IVVI)-(Ig32)2 polyprotein, talin R3 domain with the IVVI mutation; experiment: single-molecule magnetic tweezers; talin R3 polyprotein tethered between glass and bead; vinculin allowed to bind at 8.5 pN for a variable time, then a 40 pN pulse to force dissociation; unbinding times at 40 pN (square-root histogram); PBS with 10 mM ascorbic acid, pH 7.3
[2] = molecular target: (Ig32)2-(R3^IVVI)-(Ig32)2 polyprotein, talin R3 domain with the IVVI mutation; experiment: single-molecule magnetic tweezers; talin R3 polyprotein tethered between glass (HaloTag) and streptavidin-coated bead (biotinylated AviTag); vinculin in solution (20 nM FLV); constant low force (~8.5 pN, up to ~9-10 pN); PBS with 10 mM ascorbic acid, pH 7.3; Kd from the paper's kinetic model
[3] = molecular target: (Ig32)2-(R3^IVVI)-(Ig32)2 polyprotein, talin R3 domain with the IVVI mutation; experiment: single-molecule magnetic tweezers; talin R3 polyprotein tethered between glass and bead; vinculin in solution (20 nM FLV); constant higher forces (12.5 pN, 15 pN; above ~10 pN), reversible binding and unbinding steps; unbinding rates against force fitted to the Bell-Evans model; PBS with 10 mM ascorbic acid, pH 7.3
[4] = molecular target: (Ig32)2-(R3^IVVI)-(Ig32)2 polyprotein, talin R3 domain with the IVVI mutation; experiment: magnetic tweezers; details: parent: est. 9 s, read off a plot
[5] = molecular target: actin from rabbit skeletal muscle (rabbit) (UniProt P68135)

Chain of full-length human vinculin, wild type (P18206 other isoform, or with tags, fused parts or gaps): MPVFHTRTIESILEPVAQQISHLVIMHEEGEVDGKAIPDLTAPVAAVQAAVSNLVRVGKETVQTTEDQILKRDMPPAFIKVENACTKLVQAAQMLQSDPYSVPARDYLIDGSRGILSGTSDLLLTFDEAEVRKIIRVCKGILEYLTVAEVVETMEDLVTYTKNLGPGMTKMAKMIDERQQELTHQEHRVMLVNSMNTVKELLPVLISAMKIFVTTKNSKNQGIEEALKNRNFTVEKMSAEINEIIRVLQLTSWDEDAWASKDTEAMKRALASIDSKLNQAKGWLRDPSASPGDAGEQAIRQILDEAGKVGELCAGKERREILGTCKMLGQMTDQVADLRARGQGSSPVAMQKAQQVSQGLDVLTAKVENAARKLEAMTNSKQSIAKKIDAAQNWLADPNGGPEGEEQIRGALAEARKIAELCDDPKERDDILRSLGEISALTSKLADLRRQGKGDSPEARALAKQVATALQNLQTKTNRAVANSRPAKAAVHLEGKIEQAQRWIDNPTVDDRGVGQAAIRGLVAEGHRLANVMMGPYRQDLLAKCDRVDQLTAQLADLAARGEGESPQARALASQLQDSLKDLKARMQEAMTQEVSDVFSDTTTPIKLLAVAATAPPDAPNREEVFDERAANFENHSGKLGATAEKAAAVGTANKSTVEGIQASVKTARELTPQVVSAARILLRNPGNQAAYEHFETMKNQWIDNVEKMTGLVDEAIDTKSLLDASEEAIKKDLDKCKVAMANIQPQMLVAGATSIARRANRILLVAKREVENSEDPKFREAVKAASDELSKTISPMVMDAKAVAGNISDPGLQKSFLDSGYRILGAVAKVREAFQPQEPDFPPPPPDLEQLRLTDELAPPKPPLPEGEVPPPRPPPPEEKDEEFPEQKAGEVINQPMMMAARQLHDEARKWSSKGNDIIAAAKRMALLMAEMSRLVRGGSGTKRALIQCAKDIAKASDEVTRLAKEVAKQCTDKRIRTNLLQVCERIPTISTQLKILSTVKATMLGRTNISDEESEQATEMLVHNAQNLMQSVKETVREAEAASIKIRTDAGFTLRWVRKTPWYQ

Question: Which results are given for “full-length human vinculin, wild type (from UniProt P18206-2 1-1066) (natural protein)”?
Answer: timescale of maturation from the weak to the stable bound state [1]: 37 s; unbinding time at 40 pN, stronger binding mode (t2) [1]: 7.4 s; unbinding time at 40 pN, weak binding mode (t1) [1]: 0.4 s; Kd, initial bound state, low forces (up to ~9-10 pN) [2]: 0.2 nM; Kd, mature bound state, low forces (up to ~9-10 pN) [2]: 4 pM; timescale of unbinding at ~8.5 pN [2]: 1 hour; Kd, forces above ~10 pN [3]: 0.005 µM; k0, intrinsic off-rate (Bell-Evans fit of the unbinding rates, zero force) [3]: 0.0066 s⁻¹; unbinding rate of Fig. 1G extrapolated to ~8.5 pN [3]: 0.01 s⁻¹

Question: Which other: average unbinding time at 40 pN [4] does the source give for “full-length human vinculin, wild type (from UniProt P18206-2) T12” here?
Answer: Its other: average unbinding time at 40 pN is 20 s.

Question: How did the ratio of bundled actin of 5M against that of the 4M variant, TIRF microscopy, no talin-VBS1 [5] turn out when “full-length human vinculin K944A-R945A-D1013A-E1015A-E986A (5M) (from UniProt P18206-2 1-1066) (natural protein)” was run?
Answer: The ratio of bundled actin of 5M against that of the 4M variant, TIRF microscopy, no talin-VBS1 was 1.4 fold over 4M.
